Target: relaxin binding sites on primary human fetal cardiac cells (receptor not named) (human)
Assay: competitive binding on cultured cells: 100 µM 32P-relaxin, 2 hr at room temperature, with or without 1000-fold excess of unlabeled relaxin; (total - nonspecific)/total x 100

percent specific binding: 40 to 55%
Substance: 32P-labeled relaxin (from UniProt P04090 162-185; P04090 25-53) (ligand)
